One assay has as its target T1, SARS-CoV-2 南非beta突变型S1抗原 (SARS-CoV-2 beta variant, UniProt P0DTC2 16-685).
T1 construct: domain: S1; also called beta突变体抗原; beta变异突变株
Briefly: SPR, Biacore T200, antigen coupled to CM5 chip, nanobody as analyte.

The target of assay [1] is T2, SARS-CoV-2 印度delta突变型S1抗原 (SARS-CoV-2 delta variant, UniProt P0DTC2 16-685).
T2 construct: domain: S1; also called delta突变体抗原; delta变异突变株
Described as above.

Broadly, the Kd is the free concentration of one partner at which half of the binding sites on the other are occupied at equilibrium, for simple one-to-one binding. Lower therefore signals a tighter complex.

B1: R-30 (VHH)
VHH: QVQLQESGGGLVQSGGSLRLSCTASGGIIRLNSMGWYRQAPGKQREPVATIVSDVGTNYADSVKGRFTISRDNAKNTIYLQMNSLKFEDTAVYYCVADRAFVLRGEYEYWGQGTQVTVSS
notes: also called 第一株RBD纳米抗体R-30
Turning to B1, the Kd (with SARS-CoV-2 南非beta突变型S1抗原; in assay [1]) was ~0.1 nM throughout.

B2: S1-24 (VHH)
VHH: QVQLQESGGGLVQSGGSLRLSCAASGGVSRLNSMGWYRQAQGKQRELVATIVNDVGTNYADSVKGRFTISRDNAANTVYLLMNSLKFEDTAVYNCVADRAFVLRGEYEYWGQGTQVTVSS
notes: also called 第四株RBD纳米抗体S1-24
For B2, the Kd (with SARS-CoV-2 南非beta突变型S1抗原; in assay [1]) was ~0.1 nM throughout.

B3: S1-28 (VHH)
VHH: QVQLQESGGGLVQPGGSLRLSCTASGGIIRLNSMGWYRQAPGKQREPVATIVSDVGTNYADSVKGRFTISRDNAKNTIYLQMNSPKFEDTAVYYCVADRAFVLRGEYEYWGQGTQVTVSS
notes: also called 第二株RBD纳米抗体S1-28
Turning to B3, the Kd (with SARS-CoV-2 南非beta突变型S1抗原; in assay [1]) was ~0.1 nM throughout.

B4: S1-51 (VHH)
VHH: QVQLQESGGGLVQSGGSLRLSCAASGGVSRLNSMGWYRQAPGKQRELVATIISDVGTNYADSVKGRFTISRDNAANTVYLQMNSLKFEDTAVYYCVADRAFVLRGEYEYWGQGTQVTVSS
notes: also called 第三株RBD纳米抗体S1-51
On to B4, for which the Kd (with SARS-CoV-2 南非beta突变型S1抗原; in assay [1]) was ~0.1 nM throughout.

The values are drawn from CN117069831A (SHENZHEN BGI LIFE SCIENCE RES INSTITUTE, dated 2023).
